B1: CPEB3 Ribozyme (parent)
chain: GGGGGCCACAGCAGAAGCGUUCACGUCGCGGCCCCUGUCAGAUUCUGGUGAAUCUGCGAAUUCUGCUGU

Variants of B1 are the subject of this series. Description: self-cleavage, relative activity (ratio to wild type); higher = more cleavage; co-transcriptional.
For the variant GGGGGCCACAGCAGAAGCGUUCACGUCGCGGACCUUGUCAGAUUCUGGUGAAUCUGCGAAUUCUGCUGU [C32A C35U], the self-cleavage is 0.333.
The value for GGGGGCCACAGCAGAAGCGUUCACGUCGCGGACCGUGUCAGAUUCUGGUGAAUCUGCGAAUUCUGCUGU [C32A C35G] was 0.163; that for GGGGGCCACAGCAGAAGCGUUCACGUCGCGGACCCUGUCAGAUUCUGGUGAAUCUGAGAAUUCUGCUGU [C32A C57A] was 0.245.
To GGGGGCCACAGCAGAAGCGUUCACGUCGCGUCCCCUGUCAGAUUCUGGUGAAUCAGCGAAUUCUGCUGU [G31U U55A] belongs 0.428; to GGGGGCCACAGCAGAAGCGUUCACGUCGCGUCCCCUGUCAGAUUCUGGUGAAUCUGCUAAUUCUGCUGU [G31U G58U], 0.86; to GGGGGCCACAGCAGAAGCGUUCACGUCGCGUCCCCUGUCAGAUUCUGGUGAAUCUGCAAAUUCUGCUGU [G31U G58A], 0.482.
With GGGGGCCACAGCAGAAGCGUUCACGUCGCGUCCCCUGUCAGAUUCUGGUGAAUCUGCGACUUCUGCUGU [G31U A60C], the self-cleavage came out at 0.291.
To GGGGGCCACAGCAGAAGCGUUCACGUCGCGUCCCCUGUCAGAUUCUGGUGCAUCUGCGAAUUCUGCUGU [G31U A51C] belongs 0.628; to GGGGGCCACAGCAGAAGCGUUCACGUCGCGUCCCCUGUCAGAUUCUGGUGUAUCUGCGAAUUCUGCUGU [G31U A51U], 0.805; to GGGGGCCACAGCAGAAGCGUUCACGUCGCGUCCCCUAUCAGAUUCUGGUGAAUCUGCGAAUUCUGCUGU [G31U G37A], 0.206.
The value for GGGGGCCACAGCAGAAGCGUUCACGUCGCGUCCCCCGUCAGAUUCUGGUGAAUCUGCGAAUUCUGCUGU [G31U U36C] was 0.516.
To GGGGGCCACAGCAGAAGCGUUCACGUCGCGGACCCUGUCAGAUUCUGGUGAGUCUGCGAAUUCUGCUGU [C32A A52G] belongs 0.431; to GGGGGCCACAGCAGAAGCGUUCACGUCGCGGACCCUGUCAGAUUCUGGUGAAUCUGCGAAUUCUGCUGA [C32A U69A], 0.965; to GGGGGCCACAGCAGAAGCGUUCACGUCGCGGACCCUGUCAGAUUCUGGUGAAUCUGCGAAUUCUGCUGG [C32A U69G], 0.983.
Turning to GGGGGCCACAGCAGAAGCGUUCACGUCGCGGACCCUGUCAGAUCCUGGUGAAUCUGCGAAUUCUGCUGU [C32A U44C], the self-cleavage stood at 0.482.
The value for GGGGGCCACAGCAGAAGCGUUCACGUCGCGGACCCUGUCAGAUUCUGGUGAAUCUGCGUAUUCUGCUGU [C32A A59U] was 0.445.
To GGGGGCCACAGCAGAAGCGUUCACGUCGCGGACCCUGUCAGAUUCUGGUGAAUCUGCGAAUUCUGCUCU [C32A G68C] belongs 0.913.
To GGGGGCCACAGCAGAAGCGUUCACGUCGCGGACCCUGUCAGAUUCUGGUUAAUCUGCGAAUUCUGCUGU [C32A G50U] belongs 0.707; to GGGGGCCACAGCAGAAGCGUUCACGUCGCGUCCCCUGUCAGAUUCUGGUGAAUCUGCGAAUUCUGCCGU [G31U U67C], 0.939; to GGGGGCCACAGCAGAAGCGUUCACGUCGCGGACCCUUUCAGAUUCUGGUGAAUCUGCGAAUUCUGCUGU [C32A G37U], 0.18.
Regarding GGGGGCCACAGCAGAAGCGUUCACGUCGCGGACCCUAUCAGAUUCUGGUGAAUCUGCGAAUUCUGCUGU [C32A G37A], the self-cleavage was determined as 0.263.
The value for GGGGGCCACAGCAGAAGCGUUCACGUCGCGUCCCCUGUCAGAUUCUGGUGAAUCUGCGAAUUCGGCUGU [G31U U64G] was 0.479.
As to GGGGGCCACAGCAGAAGCGUUCACGUCGCGGACCCGGUCAGAUUCUGGUGAAUCUGCGAAUUCUGCUGU [C32A U36G], the self-cleavage turned out to be 0.263.
Consider GGGGGCCACAGCAGAAGCGUUCACGUCGCGUCCCCUGUCAGAUUCUGGUGAAUCUGCGAAUUAUGCUGU [G31U C63A], for which the self-cleavage was 0.25.
GGGGGCCACAGCAGAAGCGUUCACGUCGCGUCCCCUGUCAGAUUCUGGUGAAUCUGCGAAUUGUGCUGU [G31U C63G]: the self-cleavage was determined as 0.454.
To GGGGGCCACAGCAGAAGCGUUCACGUCGCGUCCCCUGUCAGAUUCUGGUGAAUCUGGGAAUUCUGCUGU [G31U C57G] belongs 0.236; to GGGGGCCACAGCAGAAGCGUUCACGUCGCGUCCCCUGUCACAUUCUGGUGAAUCUGCGAAUUCUGCUGU [G31U G41C], 0.283; to GGGGGCCACAGCAGAAGCGUUCACGUCGCGUCCCCUGUCAAAUUCUGGUGAAUCUGCGAAUUCUGCUGU [G31U G41A], 0.348.
To GGGGGCCACAGCAGAAGCGUUCACGUCGCGUACCCUGUCAGAUUCUGGUGAAUCUGCGAAUUCUGCUGU [G31U C32A] belongs 0.321.
To GGGGGCCACAGCAGAAGCGUUCACGUCGCGGACCCUGUCAGAUUCUGGGGAAUCUGCGAAUUCUGCUGU [C32A U49G] belongs 0.626; to GGGGGCCACAGCAGAAGCGUUCACGUCGCGUCCCCUGUCAGAUACUGGUGAAUCUGCGAAUUCUGCUGU [G31U U44A], 0.577; to GGGGGCCACAGCAGAAGCGUUCACGUCGCGUCCCCUGUCAGAUGCUGGUGAAUCUGCGAAUUCUGCUGU [G31U U44G], 0.3.
Turning to GGGGGCCACAGCAGAAGCGUUCACGUCGCGGACCCUGUCAGAUUAUGGUGAAUCUGCGAAUUCUGCUGU [C32A C45A], the self-cleavage turned out to be 0.586.
Regarding GGGGGCCACAGCAGAAGCGUUCACGUCGCGGACCCUGUCAGAUUUUGGUGAAUCUGCGAAUUCUGCUGU [C32A C45U], the self-cleavage amounted to 0.753.
To GGGGGCCACAGCAGAAGCGUUCACGUCGCGUCCCCUGUCAGAUUCUGGUGAAUCUGCGAACUCUGCUGU [G31U U61C] belongs 0.258.
To GGGGGCCACAGCAGAAGCGUUCACGUCGCGUCCCAUGUCAGAUUCUGGUGAAUCUGCGAAUUCUGCUGU [G31U C35A] belongs 0.26; to GGGGGCCACAGCAGAAGCGUUCACGUCGCGUCCCUUGUCAGAUUCUGGUGAAUCUGCGAAUUCUGCUGU [G31U C35U], 0.363; to GGGGGCCACAGCAGAAGCGUUCACGUCGCGUCCCCUGUCAGAUUCUGGUAAAUCUGCGAAUUCUGCUGU [G31U G50A], 0.758.
To GGGGGCCACAGCAGAAGCGUUCACGUCGCGUCCCCUGUCAGAUUCUGGUGAAUCUGCGAAUUCUGCUGG [G31U U69G] belongs 1.02.
